Data: patent US20090274696A1, “METHODS FOR TREATING INFLAMMATION” (WYETH, priority 2008, published 2009)

System: MLCK, MLC-20, α-actin, G proteins, c-Raf/ERK1/2/p38 MAPK in trachea
Assay: Western blot of protein expression in treated trachea
Format: cell-based, mouse
Method: PBS- and FIZZ1-treated trachea were cultured in DMEM overnight for Western blot analysis. Treated and untreated trachea were harvested and homogenized separately in lysis buffer containing 20 mM […], 2.0 mM EGTA, 5.0 mM EDTA, 30 mM sodium fluoride, 40 mM β-glycerophosphate, 20 mM sodium orthovanadate, 1.0 mM phenylmethylsulfonyl-fluoride, 3.0 mM benzamidine, 5 μM pepstatin A, 10 μM leupeptin and 0.5% Triton X-100 at pH 7.2 (KINEXUS, Canada). Tissue supernatants were centrifuged (15,000×g) for 60 min at 4° C. and protein concentrations in the cleared supernatant of homogenized trachea and BAL were examined by bicinchoninic acid assay (BCA) (Pierce Biotechnology, Rockford, Ill.). Absorbance of total protein from each group was measured spectrophotometrically at an optical density of 562 nm and different concentrations of bovine serum albumin (BSA) were applied as a standard curve. Proteins concentrations (μg/ml) were quantified with the standard curve of BSA using BCA assay. Samples were stored at −70° C. until use.
Protein expression levels of were examined using Western blot analysis. Briefly, aliquots (100 μg/well) of BAL supernatant and tracheal lysate were loaded onto 4-20% SDS-PAGE gel in an equal volume. Size-fractionated proteins were transferred to nitrocellulose membrane and then blocked with 5% nonfat dried milk in TBS at room temperature for 60 min. The membrane was individually incubated with primary antibodies to either FIZZ1 (Rabbit anti-mouse FIZZ1, Antigenix America Inc., USA), MLCK, MLC-20, α-actin, Giα1,2, Ggα11, β-actin (Sigma, USA), Gα12/13 (Santa Cruz Biotechnology, Inc., USA), c-Raf, phospho-c-Raf, ERK1/2, phospho-ERK1/2, p38 MAPK or phospho-p38 MAPK (Cell Signaling, Inc., USA) at 4° C. overnight, washed three times with TBS and then incubated with peroxidase-conjugated secondary antibodies for another 60 min. The blot was washed 3 times with TBS and a mixture of Western Blotting Detection Reagent I and II (GE Healthcare Life Sciences, Piscataway, N.J.) was poured on the membrane with gentle agitation for 1 min at room temperature. Immunoreactive bands were detected by chemiluminesence. Protein expression levels were evaluated in relative to expression of β-actin in the same tissue. Quantification of Western blots for phosphorylated signaling proteins was performed using ImageJ and relative band intensity was calculated as % of the intensity of the β-actin protein band.

[1] = 24 hours after rFIZZ1 treatment vs PBS, n=3
[2] = FIZZ1-treated vs PBS-treated trachea, relative to β-actin

B1: rFIZZ1: recombinant FIZZ1 (Leinco Technologies), mouse FIZZ1 protein, resistin-like molecule-α (protein, listed as Mus musculus)
chain: MKTTTCSLLICISLLQLMVPVNTDETIEIIVENKVKELLANIPANYPSTVTKTLSCTSVKTMNRWASCPAGMTATGCACGFACGSWEIQSGDTCNCLCLLV
modifications: (1)..(101) Murine FIZZ1 polypeptide
How did the “protein expression levels for α-actin and G proteins (Giα1,2, Gqα11, Gα12/13)” value (100 nM rFIZZ1- vs PBS-treated trachea, normalized to β-actin) turn out when B1 was run?
The value was “similar”.

What about the “level of phosphorylation of c-Raf, ERK1/2 and p38 MAPK, kinetic profile” value (100 nM rFIZZ1, greatly increasing only between 16 and 32 hours) of the same molecule?
The value was “marked time-dependent increase”.

What about the “expression of phospho-ERK1/2” value [1] of the same molecule?
Its value is “increased”.

What about the “expression of phospho-c-Raf” value [1] of the same molecule?
Its value is “increased”.

What about the “expression of phospho-p38 MAPK” value [1] of the same molecule?
The value was “increased”.

What about the “expression of unphosphorylated c-Raf” value (24 hours, FIZZ1 vs PBS-cultured trachea) of the same molecule?
Its value is “slightly increased”.

What about the “expression of MLC-20” value [2] of the same molecule?
The value was “increase”.

What about the “expression of MLCK” value [2] of the same molecule?
The value was “increase”.
